Laboratory results published in US20220220215A1.

Target: human CD137 expressed on cells (Jurkat human CD137 NF-kB luciferase reporter cells; human CD8+ T cells) (human) (UniProt Q07011)
Assay: cell-based or functional assay

Urelumab analog (antibody)
CD8+ T-cell activation assay - IL-2 release, EC50: 0.397 nM
